Here are results for one protein from article PMC5006311.

A short description of the data set: immunofluorescence confocal microscopy, HEK293. The following applies: glycan lost; control: wt hENT1 (HA- or 3xFLAG-tagged).

B1: human equilibrative nucleoside transporter 1 (hENT1): N48Q (protein)
parent chain: MTTSHQPQDRYKAVWLIFFMLGLGTLLPWNFFMTATQYFTNRLDMSQNVSLVTAELSKDAQASAAPAAPLPERNSLSAIFNNVMTLCAMLPLLLFTYLNSFLHQRIPQSVRILGSLVAILLVFLITAILVKVQLDALPFFVITMIKIVLINSFGAILQGSLFGLAGLLPASYTAPIMSGQGLAGFFASVAMICAIASGSELSESAFGYFITACAVIILTIICYLGLPRLEFYRYYQQLKLEGPGEQETKLDLISKGEEPRAGKEESGVSVSNSQPTNESHSIKAILKNISVLAFSVCFIFTITIGMFPAVTVEVKSSIAGSSTWERYFIPVSCFLTFNIFDWLGRSLTAVFMWPGKDSRWLPSLVLARLVFVPLLLLCNIKPRRYLTVVFEHDAWFIFFMAAFAFSNGYLASLCMCFGPKKVKPAEAETAGAIMAFFLCLGLALGAVFSFLFRAIV
On to B1, for which the localisation_or_trafficking result was “decreases”.
